{"source": "paper PMC9381478", "about": "“A context-dependent and disordered ubiquitin-binding motif” (Cellular and Molecular Life Sciences: CMLS, 2022)", "key": {"[1]": {"biological_target": "S. pombe ubiquitin with an N-terminal 6xhistidine-tag, TEV-cleavage site and an N-terminal free cysteine (S. pombe) (UniProt P0CG72)", "experiment": "NMR titration; 100 µM 15N-ubiquitin, unlabelled peptide or protein added or titrated (peptides to 1 mM, WT Dss1 peptide to 5 mM); 20 mM NaH2PO4, 150 mM NaCl, 5 mM TCEP, pH 7.5; CSPs of 1H-15N-HSQC, global fit to a one-site model"}, "SUMO (Homo sapiens) [2]": {"biological_target": "SUMO (Homo sapiens) (UniProt P63165)", "sequence (P63165 2-97)": "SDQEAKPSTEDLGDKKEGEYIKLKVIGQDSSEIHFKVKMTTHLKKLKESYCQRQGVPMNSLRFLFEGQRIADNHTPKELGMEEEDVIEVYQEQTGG", "conditions": "cited from earlier work"}, "SUMO (Homo sapiens) [3]": {"biological_target": "SUMO (Homo sapiens) (UniProt P63165)", "conditions": "cited from earlier work", "remark": "listed apart in the source"}, "ubiquitin [4]": {"biological_target": "ubiquitin (UniProt P0CG48)", "conditions": "cited from earlier work"}, "ubiquitin [5]": {"biological_target": "ubiquitin (UniProt P0CG48)", "conditions": "cited from earlier work", "remark": "listed apart in the source"}}, "note": "Like-named read-outs stand apart in the source and are kept apart here.", "data": [{"substance": "Dss1 DMD (from UniProt O14140 1-71) (natural protein)", "values": [{"measurement": "Kd", "setting": "[1]", "result": 25, "unit": "µM"}]}, {"substance": "Dss1 DWD (from UniProt O14140 1-71) (natural protein)", "values": [{"measurement": "Kd", "setting": "[1]", "result": 300, "unit": "µM"}]}, {"substance": "PIASX (from UniProt O75928)", "values": [{"measurement": "Kd", "setting": "SUMO (Homo sapiens) [2]", "result": 1, "unit": "µM"}]}, {"substance": "PML-P (from UniProt P29590)", "values": [{"measurement": "Kd", "setting": "SUMO (Homo sapiens) [3]", "result": 100, "unit": "µM"}]}, {"substance": "RABEX5 UIM (from UniProt Q9UJ41)", "values": [{"measurement": "Kd", "setting": "ubiquitin [4]", "result": 100, "unit": "µM"}]}, {"substance": "Spd1 peptide (15-mer with the DisUBM of S. pombe Spd1)", "values": [{"measurement": "Kd", "setting": "[1]", "result": 3100, "unit": "µM"}]}, {"substance": "Vps27 UIM (from UniProt P40343)", "values": [{"measurement": "Kd", "setting": "ubiquitin [5]", "result": 20, "unit": "µM"}]}]}
